Measured values: patent US10106582B2, “Complex-formation-modulating agents and uses therefor” (Factor Therapeutics Limited, priority 2012, dated 2018)
Where no end group is shown, it is not given here.

Assays:
IGF-II = target: T1, IGF-II (Homo sapiens, UniProt P01344); assay: VN-peptide array: binding of IGF-II to immobilized overlapping 16-mer VN peptides; conditions: relative spot intensity on VN-peptide array after IGF-II incubation, vs average intensity of negative controls (TotalLab)
T1 construct: purchased GroPep
Excerpt: (§1) The inventors designed small-molecule VN-peptides that could potentially disrupt the formation of the IGF-I:IGFBP:VN trimeric or the IGF-II:VN dimeric complexes by binding to the IGFBPs and/or IGF-II and preventing their association with VN within the complex. To design peptides, the binding sites of IGFBP-3/-5 and IGF-II on VN were first determined using VN-peptide arrays. The entire VN protein sequence, excluding the signal peptide (residues 1-19), was divided into overlapping 16-mer peptides with 3AA frameshift/offset (for peptide sequences refer to Table 6) and immobilized onto cellulose membranes (peptide spotting was outsourced to PepMetric Technologies Inc). For a schematic of the arrangement of VN peptides and controls refer to FIG. 2. The resultant peptide arrays were incubated either with IGFBP-3, IGFBP-5 or IGF-II ligands, probed with the respective antibodies, the membranes developed using ECL, and imaged using the ChemiDoc™ XRS system (BioRad). The spots on the membrane were analysed using TotalLab array quantification software (TotalLab Ltd, Newcastle, England) identifying positive peptide spots by comparing each spot to the combined intensities of the negative controls.
(§2) The entire VN protein sequence, excluding the signal peptide (residues 1-19), was divided into overlapping 16-mer peptides with 3 amino acid (AA) frameshift/offset. This yielded 148 overlapping peptides covering the entire VN sequence (residues 20-478) (Table 6) with a resolution of 3 AA. Peptide synthesis and spotting onto a cellulose membrane were outsourced to PepMetric Technologies Inc. (Richmond, BC, Canada). For a diagrammatic illustration of the strategy used to divide an example amino acid sequence into peptides and to spot them onto the membrane, please refer to http://www.pepmetric.com/html/Pep-Overlap.html. The VN-overlapping peptides were generated using FMOC (9-fluorenylmethoxycarbonyl) Solid-Phase SPOT synthesis onto PEG-grafted amine-functionalized cellulose membrane (Whatman® 540 filter paper). The peptides were spotted onto the cellulose membrane in a 10×16 grid with each peptide being 10˜50 nM in concentration with >70% purity. Finally, these membranes were acetylated in order to cap the free ends of the spotted peptides preventing them from degradation during shipping and storage.
(§3) Along with the VN-peptides these membranes were also spotted with a positive control (i.e., universal binding peptides tested by the manufacturer to be positive for antibodies from goat, mouse, rat and chicken) and a negative control (ie. non-binding peptides as well as BSA) controls. For a schematic of the arrangement of VN-peptides and controls refer to FIG. 2 and for the sequence of each peptide corresponding to the grid number refer to Table 6. Four such replicate membranes were prepared and stored at room temperature in a clip sealed plastic bag. Long-term storage was at −20° C.
(§4) Methanol or ethanol was used to enhance the rehydration of peptide spots that might be hydrophobic. The peptides spotted onto the membranes were activated by incubating in 3 mL of 70% ethanol for five mins. The membranes were subsequently washed three times, 10 minutes each, in 10 mL TBS (Tris Buffered Saline; 8 g NaCl, 0.2 g KCl and 6.1 g Tris Base into 1000 mL of milliQ water, pH 7) with gentle rocking. Membrane blocking was performed by incubating in 10 mL casein-based membrane blocking buffer (MBS; Sigma-Aldrich) overnight at 4° C. The following day, the membranes were washed twice, 10 minutes each, in 10 mL TBS-T (TBS+0.05% Tween-20; pH 7).
(§5) Ligands used to test binding to VN-peptides were IGFBP-3, IGFBP-5 and IGF-II. For ligand binding, four separate solutions of 1 μg/mL ligand in 10 mL MBS buffer were prepared and each membrane was incubated in one of the four ligand solutions overnight at 4° C., with gentle rocking. […] The following day, the membranes were washed three times, 10 minutes each, in 10 mL TBS-T. […]

IGFBP-3 = target: T2, IGFBP-3 (Homo sapiens, UniProt P17936); assay: VN-peptide array: binding of IGFBP-3 to immobilized overlapping 16-mer VN peptides; conditions: relative spot intensity on VN-peptide array after IGFBP-3 incubation, vs average intensity of negative controls (TotalLab)
T2 construct: purchased GroPep
Excerpt: as §1, §2, §3, §4, §5

T1 sequence (P01344 25-91 limits assumed): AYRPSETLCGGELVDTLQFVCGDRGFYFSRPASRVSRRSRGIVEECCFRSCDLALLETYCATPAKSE
T2 sequence (P17936 28-291): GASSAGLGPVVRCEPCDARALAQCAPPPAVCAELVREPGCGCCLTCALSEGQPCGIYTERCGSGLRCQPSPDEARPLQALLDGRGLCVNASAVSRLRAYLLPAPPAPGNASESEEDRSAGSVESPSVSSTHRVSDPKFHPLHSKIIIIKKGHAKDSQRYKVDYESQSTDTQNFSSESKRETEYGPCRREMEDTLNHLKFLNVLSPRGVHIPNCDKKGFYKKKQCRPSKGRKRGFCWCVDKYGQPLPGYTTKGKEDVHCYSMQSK

Sequence	Intensity (against −ve control), IGFII (IGF-II)	Intensity (against −ve control), BP3 (IGFBP-3)
DELCSYYQSCCTDYTA (not fully specified (N-terminus); cysteine pairing not given here) [Peptide 1B]	12-IGFII fold-change	–
DSWEDIFELLFWGRTS (not fully specified (N-terminus)) [Peptide 5D]	–	2.5-BP3 fold-change
FAMMQRDSWEDIFELL (not fully specified (N-terminus)) [Peptide 5B]	–	4.5-BP3 fold-change
FEHFAMMQRDSWEDIF (not fully specified (N-terminus)) [Peptide 5A]	–	1.5-BP3 fold-change
KGKQYWEYQFQHQPSQ (not fully specified (N-terminus)) [Peptide 4A]	–	6-BP3 fold-change
MQRDSWEDIFELLFWG (not fully specified (N-terminus)) [Peptide 5C]	–	4.5-BP3 fold-change
QYWEYQFQHQPSQEEC (not fully specified (N-terminus)) [Peptide 4B]	–	12-BP3 fold-change
TRQPQFISRDWHGVPG (not fully specified (N-terminus)) [Peptide 6C]	1.5-IGFII fold-change	–

Continued, values first:

Intensity (against −ve control), IGFII (IGF-II)	Intensity (against −ve control), BP3 (IGFBP-3)	Sequence
17-IGF-II fold-change	–	LFSSEESNLGANNYDD (not fully specified (N-terminus)) [Peptide 7A]
18-IGF-II fold-change	–	SEESNLGANNYDDYRM (not fully specified (N-terminus)) [Peptide 7B]
12-IGF-II fold-change	–	SNLGANNYDDYRMDWL (not fully specified (N-terminus)) [Peptide 7C]
